Measured values from article PMC4744555, “Pi Release Limits the Intrinsic and RNA-Stimulated ATPase Cycles of DEAD-Box Protein 5 (Dbp5)” (Journal of Molecular Biology, 2016).
Each block holds one molecule with its values, some of them ahead of it.

Legend:
Dbp5 [1] = target: T1, Dbp5 (Saccharomyces cerevisiae, UniProt P20449); assay: kinetic competition with mantADP, FRET stopped flow; format: binding; details: no RNA; 30 mM Hepes pH 7.5, 100 mM KCl, 2 mM MgCl2, 2 mM DTT, 25 °C
T1 construct: full-length, N-terminal 6xHis tag, expressed in E. coli
T1 sequence (P20449 1-482): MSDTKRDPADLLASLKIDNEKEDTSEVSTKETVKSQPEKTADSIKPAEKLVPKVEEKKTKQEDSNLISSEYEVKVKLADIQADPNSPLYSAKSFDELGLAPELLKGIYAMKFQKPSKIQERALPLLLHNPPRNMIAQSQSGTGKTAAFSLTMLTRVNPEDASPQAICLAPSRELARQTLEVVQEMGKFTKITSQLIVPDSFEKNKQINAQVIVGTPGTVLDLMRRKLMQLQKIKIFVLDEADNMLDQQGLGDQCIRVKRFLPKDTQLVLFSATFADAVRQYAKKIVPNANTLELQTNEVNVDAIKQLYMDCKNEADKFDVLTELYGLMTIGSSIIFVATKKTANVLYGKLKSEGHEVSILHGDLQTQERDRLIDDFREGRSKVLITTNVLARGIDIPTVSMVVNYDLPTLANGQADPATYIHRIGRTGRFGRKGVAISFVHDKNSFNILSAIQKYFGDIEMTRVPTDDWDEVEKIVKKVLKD
Source text: kinetic competition with mantADP, FRET stopped flow on Dbp5

Dbp5 [2] = target: T1, Dbp5; assay: FRET stopped flow, total fluorescence amplitude; format: binding
Source text: FRET stopped flow, total fluorescence amplitude on Dbp5

Dbp5 [3] = target: T1, Dbp5; assay: transient Pi release lag phase, phosphate binding protein (PiBiP), stopped flow; format: biochemical; details: no RNA; 30 mM Hepes pH 7.5, 100 mM KCl, 2 mM MgCl2, 2 mM DTT, 25 °C; ATP dissociation constant from lag-phase dependence; also determined by mant-nucleotide competition
Source text: transient Pi release lag phase, phosphate binding protein (PiBiP), stopped flow on Dbp5

[4] = substrate: Nc1ncnc2c1ncn2[C@@H]1O[C@H](COP(=O)(O)OP(=O)(O)OP(=O)(O)O)[C@@H](O)[C@H]1O; assay: NADH-coupled steady-state ATPase assay; format: biochemical, Saccharomyces cerevisiae; details: no RNA, 30 mM Hepes pH 7.5, 100 mM KCl, 2 mM MgCl2, 2 mM DTT, 25 °C
Source text: (§1) NADH-coupled steady-state ATPase assay on Dbp5

[5] = substrate: Nc1ncnc2c1ncn2[C@@H]1O[C@H](CO[P@](=O)(O)O[P@](=O)(O)O[P@@](=O)(O)S)[C@@H](O)[C@H]1O; assay: NADH-coupled steady-state ATPase assay; format: biochemical, Saccharomyces cerevisiae; details: no RNA, 30 mM Hepes pH 7.5, 100 mM KCl, 2 mM MgCl2, 2 mM DTT, 25 °C
Source text: as §1

Kd (Dbp5 [1]): 360 µM
Molecule: Nc1ncnc2c1ncn2[C@@H]1O[C@H](COP(=O)(O)OP(=O)(O)O)[C@@H](O)[C@H]1O [ADP]

Kd (Dbp5 [2]): 1 µM
Molecule: CNc1ccccc1C(=O)O[C@H]1[C@@H](O)[C@H](n2cnc3c(N)ncnc32)O[C@@H]1CO[P@@](=O)(O)O[P@](=O)(O)OP(=O)(O)O [mantATP]

Kd (Dbp5 [3]): 4000 µM
Molecule: Nc1ncnc2c1ncn2[C@@H]1O[C@H](COP(=O)(O)OP(=O)(O)OP(=O)(O)O)[C@@H](O)[C@H]1O [ATP]

B1: Dbp5 (Saccharomyces cerevisiae S288C) (protein)
chain: T1 sequence (P20449 1-482)
notes: full-length, N-terminal 6xHis tag, expressed in E. coli
Km [4]: 1.7 (± 0.2) mM | kcat [4]: 0.043 (± 0.001) s^− 1 | Km [5]: 0.98 (± 0.06) mM | kcat [5]: 0.036 (± 0.001) s^− 1
